From paper PMC4503980 (Scientific Reports, 2015)
Blank lines part the entries; values can stand above or below the molecule they belong to. Ends that are not written are not given here. Peptide text beside a SMILES is read from it. * marks the point of attachment. 5TAMRA = CN(C)c1ccc2c(c1)Oc1cc(N(C)C)ccc1C21OC(=O)c2cc(C(=O)*)ccc21

What was measured:
PSD-95-PDZ1-2 = target: T1, PSD-95-PDZ1-2 (Homo sapiens, UniProt P78352); assay: FP saturation and inhibition, TAMRA-Cnskr2 / PSD-95-PDZ1-2; assay type: binding; details: TAMRA-Cnskr2 5 nM
T1 construct: PDZ1-2 (61-249); made in house; host or cells: E. coli BL21-DE3 pLysS
Source text: (§1) First we tested a series of 23 fluorescent-labelled C-terminal peptide ligands (Supplementary Table S1) derived from PDZ-interacting proteins in order to find a probe with good activity towards the PSD-95 PDZ domains and no or little activity against nNOS-PDZ (Supplementary Fig. S1). The Cnskr2 probe fulfilled these selectivity criteria and was used to generate saturation curves with PDZ2 and PDZ1-2 of PSD-95 (Fig. 4a). […] Next, fixed concentrations of TAMRA-Cnskr2, PSD-95-PDZ2/1-2, and nNOS-PDZ were applied, corresponding to the conditions at IC50 of the nNOS-PDZ inhibition curve (Fig. 4b) where sensitivity of the assay is greatest. […] Here, we used the Sapk3-peptide as it has the desired high affinity to α1-Syntrophin-PDZ and low affinity to nNOS-PDZ (Supplementary Fig. S1).
(§2) The minor increases in mP at high concentrations, 260-2900 μM, were due to fluorescence artefacts.
(§3) Incubation time was 10–15 minutes (room temperature), and the assay was performed in a 1 × TBS buffer (150 mM NaCl, 10 mM Tris, pH 7.4) using black flat-bottom 384-well plates (Corning Life Sciences, NY) and a Safire2 plate-reader (Tecan, Männedorf, Switzerland). […] TAMRA- and Cy5-probes were measured at excitation/emission values of 530/585 nm (bandwidth = 20 nm) and 635/670 nm (bandwidth = 15 nm), respectively. […]

nNOS-PDZ = target: T2, nNOS-PDZ (Homo sapiens, UniProt P29475); assay: FP saturation, TAMRA-Cnskr2 / nNOS-PDZ; assay type: binding; details: TAMRA-Cnskr2 5 nM, read-out: Kd probe / nNOS-PDZ
T2 construct: nNOS-PDZ (12–130, human); made in house; host or cells: E. coli
Source text: as §1, §2, §3

PSD-95-PDZ2 [1] = target: T3, PSD-95-PDZ2 (Homo sapiens, UniProt P78352); assay: FP saturation and inhibition, TAMRA-Cnskr2 / PSD-95-PDZ2; assay type: binding; design: PDZ2 (155-249); made in house; host or cells: E. coli BL21-DE3 pLysS; details: TAMRA-Cnskr2 5 nM
Source text: as §1, §2, §3

[2] = target: PDZ1-2 (61-249) from PSD-95 (human); assay: fluorescence polarisation; inhibition of TAMRA-Cnskr2 (5 nM)/PDZ2 (1.5 μM) or PDZ1-2 (1 μM) by increasing unlabelled nNOS-PDZ or GluN2B-C5; 1 x TBS pH 7.4; Ki calculated from IC50
[3] = target: PDZ2 (155-249) from PSD-95 (human); assay: as above
Cy5-Nav1.4 = assay: fluorescence polarisation; saturation binding: increasing PDZ domain protein (typically 0-150 μM) added to a fixed low concentration of TAMRA- or Cy5-labelled probe (5 or 50 nM); 1 x TBS (150 mM NaCl, 10 mM Tris, pH 7.4), 10-15 min, room temperature
TAMRA-Cnskr2 = assay: as above
[4] = target: PDZ1 (61-151) from PSD-95 (human); assay: fluorescence polarisation; 'direct' FP inhibition assay: TAMRA-nNOS (5 nM) with fixed PDZ1 (7.5 μM), PDZ2 (2.5 μM) or PDZ1-2 (0.3 μM); increasing control compound; 1 x TBS pH 7.4
[5] = target: PDZ2 (155-249) from PSD-95 (human); assay: as above
PSD-95-PDZ2 [6] = target: T3, PSD-95-PDZ2; assay: ITC titration into PSD-95-PDZ2; assay type: binding; design: PSD-95-PDZ2 (157–249, human); made in house
Source text: Unlike the FP experiments above, which rely on inhibition of interaction partners, the ITC method is a direct measure of binding, regardless of where it takes place on the protein.
Figure 5 ITC curves. Plots showing titrations into PDZ domains fitted to a one-site model.
For isothermal titration calorimetry (ITC) and NMR, PSD-95-PDZ2 (157–249, human) was expressed and purified as described previously. The sequence for the extended Mus musculus nNOS-PDZ (residues 12–134, Uniprot Q9JJ30) was sub-cloned into a pETM11 vector using cloning sites Nco1 and Kpn1, and the protein was expressed and purified following a similar protocol to that used for the production of PSD-95-PDZ2.
All ITC experiments were carried out at 25 °C on an iTC200 Microcalorimeter (GE Healthcare) with a 200 μL cell capacity and 40 μL syringe volume. The buffer used for all solutions was 20 mM phosphate buffer at pH 6.3; each experiment consisted of an initial injection of 0.5 μL, followed by fifteen 2.39 μL injections before a final injection of 1.89 μL. […] In both cases no heat exchange was detected, confirming that there was appropriate match of buffer conditions with no indication of dilution effects. […] For the nNOS-PDZ/PSD-95-PDZ2 interaction, 100 μM PDZ2 in the cell was titrated with 750 μM nNOS-PDZ. […] All data was analysed using the Origin®7 software programme.

[7] = target: T4, extended Mus musculus nNOS-PDZ (residues 12-134) (Mus musculus, UniProt Q9Z0J4 12-134); assay: ITC; 25 °C, 20 mM phosphate buffer pH 6.3; 100 μM PDZ2 in the cell titrated with 750 μM nNOS-PDZ; one-site model; details: both partners purified
T4 construct: neuronal nitric oxide synthase (nNOS), Mus musculus, extended PDZ domain, residues 12-134, Uniprot Q9JJ30; Construct of the ITC and NMR experiments; 15N-labelled in some NMR samples; also called extended nNOS-PDZ; source: sub-cloned into pETM11, expressed and purified following a similar protocol to that of PSD-95-PDZ2

[8] = ITC, nNOS-PDZ titrated into PSD-95-PDZ2

Kd (PSD-95-PDZ1-2; saturation, read-out: Kd probe / PSD-95-PDZ1-2): 1100 ± 100 nM | Kd (nNOS-PDZ): > 190000 nM | Kd (PSD-95-PDZ2 [1]; saturation, read-out: Kd probe / PSD-95-PDZ2): 380 ± 30 nM
Molecule: CC[C@H](C)[C@H](NC(=O)[C@H](Cc1ccc(O)cc1)NC(=O)[C@H](CO)NC(=O)[C@H](Cc1c[nH]cn1)NC(=O)[C@@H](NC(=O)[C@H](Cc1c[nH]cn1)NC(=O)CNC(=O)[C@H](CC(N)=O)NC(=O)[C@H](CC(N)=O)NC(=O)c1ccc2c(c1)C(=O)OC21c2ccc(N(C)C)cc2Oc2cc(N(C)C)ccc21)[C@@H](C)O)C(=O)N[C@@H](CCC(=O)O)C(=O)N[C@H](C(=O)N[C@@H](Cc1c[nH]cn1)C(=O)N[C@H](C(=O)O)C(C)C)[C@@H](C)O [TAMRA-Cnskr2] (5TAMRA-NNGHTHSYIETHV-OH)

Ki [2]: 810 nM | Ki [3]: 88 nM | Kd (Cy5-Nav1.4): 20000 nM | Kd (TAMRA-Cnskr2): > 190000 nM
Molecule: nNOS-PDZ (12-130, human) (from UniProt P29475 12-130) (domain or fragment)

Ki [4]: 3900 nM | Ki [5]: 2000 nM
Molecule: {N‑cyclohexylethyl}-ETAV [N-cyclohexylethyl-ETAV]

Ki (PSD-95-PDZ1-2; PDZ1-2 1 μM): 810 ± 23 nM | Kd (PSD-95-PDZ2 [6]; 100 μM PDZ2 in cell titrated with 750 μM nNOS-PDZ, pH 6.3, 25 °C): ~670 nM | N (stoichiometry ratio) (PSD-95-PDZ2 [6]; [8]): 1.0 | T∆S (PSD-95-PDZ2 [6]; [8]): ~6.7 kcal/mol | ∆H (PSD-95-PDZ2 [6]; [8]): ~-1.7 kcal/mol | Ki (PSD-95-PDZ2 [1]; PDZ2 […]): 88 ± 14 nM
B1: nNOS-PDZ: recombinant extended PDZ domain of nNOS (12–130 human for FP; 12–134 Mus musculus for ITC/NMR) (protein, UniProt P29475 12-130, looked up, fragment)
chain: QPNVISVRLFKRKVGGLGFLVKERVSKPPVIISDLIRGGAAEQSGLIQAGDIILAVNGRPLVDLSYDSALEVLRGIASETHVVLILRGPEGFTTHLETTFTGDGTPKTIRVTQPLGPPT

B2: PSD-95-PDZ2 (157-249, human) (domain or fragment, UniProt P78352 157-249, looked up)
chain: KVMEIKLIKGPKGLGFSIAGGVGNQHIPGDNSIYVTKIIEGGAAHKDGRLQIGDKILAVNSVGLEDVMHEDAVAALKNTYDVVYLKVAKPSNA
notes: PSD-95, human, PDZ2 domain, residues 157-249; Construct of the ITC and NMR experiments; 15N-labelled in some NMR samples
Kd [7]: ~670 nM
